B1: M0041-B11: Fab that binds human MMP-14; DNA LV SEQ ID NO: 108, HV SEQ ID NO: 109 (antibody, V domains shown)
VL: QSVLTQDPAVSVALGQTVRITCQGDSLRSYSASWYQRKPGQAPLLVIYRKTNRPSGIPDRFSGSSSGNTASLTITGAQAEDESDYYCNSRDSSGNHLFGGGTKLTVL
VH: EVQLLESGGGLVQPGGSLRLSCAASGFTFSQYSMHWVRQAPGKGLEWVSSIVPSGGMTAYADSVKGRFTISRDNSKNTLYLQMNSLRAEDTAVYYCAKISRGNDAFDIWGQGTMVTVSS
modifications: Synthetically generated oligonucleotide
B2: M0040-G04: Fab that binds human MMP-14; DNA LV SEQ ID NO: 98, HV SEQ ID NO: 99 (antibody, V domains shown)
VL: QSVLTQPPSASGTPGQRVTISCSGSRTNIGSDYVYWYQQLPGTAPKLLIYRNNERPSGVPDRFSGFKSGTSASLAISGLRSEDEADYYCASWDDRLSGPVFGGGTKLTVL
VH: EVQLLESGGGLVQPGGSLRLSCAASGFTFSQYHMLWVRQAPGKGLEWVSVIVSSGGFTFYADSVKGRFTISRDNSKNTLYLQMNSLRAEDTAVYYCARSYGGDAFDIWGQGTMVTVSS
modifications: Synthetically generated oligonucleotide
B3: M0040-C10: Fab that binds human MMP-14; DNA LV SEQ ID NO: 92, HV SEQ ID NO: 93 (antibody, V domains shown)
VL: QDIQMTQSPATLSASVGDRVTITCRASQTISTYLNWYQHKPGKAPELLIYAASSLQSGVPSRFSGSGSGTDFTLRISSLQPEDFATYYCQQSYTTPWTFGQGTKVEIK
VH: EVQLLESGGGLVQPGGSLRLSCAASGFTFSRYMMVWVRQAPGKGLEWVSSIVSSGGKTWYADSVKGRFTISRDNSKNTLYLQMNSLRAEDTAMYYCARWDWGPFDYWGQGTLVTVSS
modifications: Synthetically generated oligonucleotide
B4: M0040-H04: Fab that binds human MMP-14; DNA LV SEQ ID NO: 100, HV SEQ ID NO: 101 (antibody, V domains shown)
VL: QDIQMTQSPDSLAVSLGERATLNCRSSQSVLYSPNNKNYLAWYQQKAGQPPKLLIYWASFRESGVPERFSGSGSGTDFTLTISSLQAEDVAVYYCQQYHTPPWTFGQGTKVEIK
VH: EVQLLESGGGLVQPGGSLRLSCAASGFTFSSYDMVWVRQAPGKGLEWVSSISPSGGNTQYADSVKGRFTISRDNSKNTLYLQMNSLRAEDTAVYYCAKVAAMAPWYFDYWGQGTLVTVSS
modifications: Synthetically generated oligonucleotide
B5: M0041-D03: Fab that binds human MMP-14; DNA LV SEQ ID NO: 112, HV SEQ ID NO: 113 (antibody, V domains shown)
VL: QDIQMTQSPSSLSASVGDRITVTCRASQSITNYLNWYQQKPGKAPKLLIYAASTLQSGVPSRFSGSGSGTDFTLTISRLEPEDFAVYYCQQYGSSPTFGQGTKVEVK
VH: EVQLLESGGGLVQPGGSLRLSCAASGFTFSFYNMTWVRQAPGKGLEWVSSIYSSGGNTDYADSVKGRFTISRDNSKNTLYLQMNSLRAEDTAVYYCARDSLSHYYYGMDVWGQGTTVTVSS
modifications: Synthetically generated oligonucleotide
B6: M0040-H09: Fab that binds human MMP-14; DNA LV SEQ ID NO: 102, HV SEQ ID NO: 103 (protein)
chain 1: QSELTQDPAVSVALGQAVIITCQGDSLRTYYPSWYQQKPGQAPTLLVYGKNKRPSGVPDRFSGSRSGDTASLIITGAQAEDDADYYCNSRDGSGHLFVFGPGTTVTVL
chain 2: EVQLLESGGGLVQPGGSLRLSCAASGFTFSLYPMQWVRQAPGKGLEWVSYIRSSGGKTHYADSVKGRFTISRDNSKNTLYLQMNSLRAEDTAVYYCARVGMGSGWYTGYFDLWGRGTLVTVSS
modifications: Synthetically generated oligonucleotide
B7: M0041-C11: Fab that binds human MMP-14; DNA LV SEQ ID NO: 110, HV SEQ ID NO: 111 (antibody, V domains shown)
VL: QDIQMTQSPSSLSASVGDRVTITCRASQRIGSYLNWYQQNSGKAPRLLIYGASNLESGVPSRFSGRGSGTDFTLTISSLQPEDFATYYCQQSNSTPHTFGQGTKVEIK
VH: EVQLLESGGGLVQPGGSLRLSCAASGFTFSQYPMSWVRQAPGKGLEWVSSIGPGGWTWYADSVKGRFTISRDNSKNTLYLQMNSLRAEDTAVYYCARTATRIFGVVIMGRAFDIWGQGTMVTVSS
modifications: Synthetically generated oligonucleotide
B8: M0040-F03: Fab that binds human MMP-14; DNA LV SEQ ID NO: 96, HV SEQ ID NO: 97 (antibody, V domains shown)
VL: QDIQMTQSPLSLPVTPGEPASISCRSGQSLLHSNGYNYLNWYLQKPGQSPQLLIYLGSYRASGVPDRFSGSGSGTDFTLKISRVEAEDVGLYYCMQALQTPLTFGVGTKVEIK
VH: EVQLLESGGGLVQPGGSLRLSCAASGFTFSMYVMSWVRQAPGKGLEWVSSISSSGGNTGYADSVKGRFTISRDNSKNTLYLQMNSLRAEDTAVYYCAKSSLYYDILAGPGFDYWGQGTLVTVSS
modifications: Synthetically generated oligonucleotide
B9: M0040-D08: Fab that binds human MMP-14; DNA LV SEQ ID NO: 94, HV SEQ ID NO: 95 (antibody, V domains shown)
VL: QSALTQSPSASASLGSSVKLTCTLASEHSGYIIAWHQQQPGKAPRFLMKLDGTGNFNKGSGVPDRFSGYSSGADRYLTISNLQSEDEADYYCETWDSTTLWVFGGGTKLTVL
VH: EVQLLESGGGLVQPGGSLRLSCAASGFTFSHYGMTWVRQAPGKGLEWVSSIVPSGGYTAYADSVKGRFTISRDNSKNTLYLQMNSLRAEDTAVYYCTTGLSSSGTRWFDAWGQGTLVTVSS
modifications: Synthetically generated oligonucleotide
B10: M0041-A05: Fab that binds human MMP-14; DNA LV SEQ ID NO: 104, HV SEQ ID NO: 105 (antibody, V domains shown)
VL: QDIQMTQSPSSLSASVGDRVTITCRASQNINSYLNWYQQKPGKAPKLLIYAASSLQSGVPSRFSGSGSGTDFTLTISSLQPEDFVTYYCQQSYSTPKTFGQGTKVEIK
VH: EVQLLESGGGLVQPGGSLRLSCAASGFTFSVYTMHWVRQAPGKGLEWVSVIYPSGGLTIYADSVKGRFTISRDNSKNTLYLQMNSLRAEDTAVYYCARNRGYYAPMDVWGQGTTVTVSS
modifications: Synthetically generated oligonucleotide
B11: M0041-B03: Fab that binds human MMP-14; DNA LV SEQ ID NO: 106, HV SEQ ID NO: 107 (antibody, V domains shown)
VL: QDIQMTQSPATLSASVGDRVTISCRASQNISNWLAWYQQKPGKAPKLLIYTASTLHRGVPSRFSGSGSGTDFTLTITSLQPEDFATYYCQQANTFPWTFGQGTKVEIK
VH: EVQLLESGGGLVQPGGSLRLSCAASGFTFSMYMMWWVRQAPGKGLEWVSVISSSGGFTSYADSVKGRFTISRDNSKNTLYLQMNSLRAEDTAVYYCARLRYSNFVGGLDVWGQGTTVTVSS
modifications: Synthetically generated oligonucleotide

The molecules below were run against MMP-14 (Homo sapiens, UniProt P50281) (assay: Selection and phage ELISA screening of anti-MMP-14 Fabs). Conditions: Fab from FAB310 phage display library.
Format: binding
Protocol: Strategy I: A 100-fold excess of the FAB310 library (e.g., an amount of the library that should contain 100 copies of each library member) was depleted of streptavidin-binding antibodies by incubating the library with 200 μL of streptavidin beads for 1 hour at room temperature (RT) with rotation. 500 nM of biotinylated MMP-14 was coupled to streptavidin beads by incubation with 100 μL of streptavidin beads. The MMP-14 beads were then incubated with the streptavidin-depleted library for 1 hour at RT with rotation. The beads were then rinsed three times with 2% MTRIS/0.1% Tween, transferred to a fresh tube and washed an additional three times with 2% MTRIS/0.1% Tween, and transferred to a fresh tube and washed a final time with Round 1 TRIS buffer (50 mM TRIS; 50 mM CaCl2; 150 mM NaCl, pH 7.5).
MMP-14 binding antibodies were eluted from the beads by re-suspension in 1 mL 2% MTRIS containing 2.5 μM TIMP-2 and incubation for 1 hour at RT with rotation. The beads were then washed three times with 2% MTRIS/0.1% Tween, transferred to a fresh tube and washed three times with TRIS/0.1% Tween, and transferred to a fresh tube and washed a final time with TRIS. 1 mL output was used for infection of 9 mL TG1 bacteria (grown to OD600=0.5). The beads were further eluted by suspension in 1 mL 100 mM TEA for 10 minutes. The supernatant was neutralized with 500 μl TRIS/HCl pH 7.5. 1 mL of the second elution was used for infection of 9 mL TG1 bacteria (grown to OD600=0.5).
Two additional rounds of selection were carried out under the same conditions as the first round, except that the streptavidin beads were loaded with 100 nM biotinylated MMP-14 and the number of washes were doubled (6 times with 2% MTRIS/0.1% Tween, 6 times with TRIS/0.1% Tween and 2 times with TRIS), and Round 2/3 Tris buffer (50 mM TRIS; 5 mM CaCl2; 150 mM NaCl pH=7.5) was used for incubation and wash.
TIMP-2 was coupled to carboxylic beads, then complexed with a combination of biotinylated MMP-14 (500 nM each). The complexed beads were incubated with a 100 fold excess of FAB310 library that had been previously depleted by incubation with streptavidin beads and carboxylic beads. Elution/washing was carried out as for Strategy I.
Two additional rounds of selection were carried out, essentially as described for Strategy I, except that only 100 nM of each of MMP-14 were used in the bead complexes.
384-well plates were coated with biotinylated BSA (2 μg/ml in 50 mM TRIS; 5 mM CaCl2; 150 mM NaCl, pH 7.5), then washed 3 times with 50 mM TRIS; 5 mM CaCl2; 150 mM NaCl, pH 7.5; 0.1% Tween. Streptavidin was captured on the coated plates by incubation with 10 μg/mL streptavidin in 50 mM TRIS; 5 mM CaCl2; 150 mM NaCl pH 7.5; 0.5% Gelatin, followed by a wash with 50 mM TRIS; 5 mM CaCl2; 150 mM NaCl pH=7.5; 0.1% Tween. On the day the assay was to be performed, biotinylated MMP-14 (1 μg/ml) was captured in 50 mM TRIS; 5 mM CaCl2; 150 mM NaCl, pH 7.5.
95 clones were picked from each of Round 2 and Round 3 of each selection strategy, producing 12 masterplates. ELISA was run on the MiniTrak-5 deck according to SOP.

Bind to human MMP-14, bind to human MMP-14:
B1
B2
B3
B4
B5
B6
B7
B8
B9
B10
B11

Source: patent US8106168B2, “Metalloproteinase binding proteins” (Dyax Corp., priority 2005, dated 2012)
